{
  "source": "the DeepSol protein solubility set",
  "test": "soluble on expression in E. coli; label from the status in PepcDB or PDB records",
  "data": [
    {"sequence": "MGSDKIHHHHHHMTKPDMSKLASLSPFELKDELIKLASSDADRLMLNAGRGNPNFLATIPRHGFWQLGLFAMRESERSFSYMPEGVGGFPRREGIEERFDLFAREFAHVPGVSFLAGAVSYVRDQLGLNAGAFLYEMCEGILACNYPVPDRMLKLSEVIVGQYIRKEMIGNHPFIGEFDLFAVEGGTAAMTYLFNSIRENHLLKAGDTIALGMPIFTPYIEIPELNDYKLVELSVEADPGERWQYSNKELDKLRDPKVKAFFLVNPSNPPSVRMSDESLEYLASIIEERPDLIILTDDVYGTFADNFVSLFAMCPKNTILVYSFSKYFGATGWRLGVIATHRDNVFDEKIAALPDAARKELHERYTSITTEPDKLKFIDRLVADSRTVALNHTAGLSTPQQVQMVLFSLFSLMDTPDNYKIAMKRLIRNRKAALYREIGIAPEADDPNAVDYYTLLDIEALGGKALGPDFVKWVLASVEPNELLFRLAEDAGVVLLPGRGFGTRHPSGRVSLANLNESDYAKIGRSIRKLFEEYVEKYNEATGNKANKHVVKK", "values": [
      {"measurement": "soluble on expression in E. coli", "result": "not soluble"}
    ]},
    {"sequence": "MTSPYATIVDAREFNAPMFAEKIDRALRAGEKDAVVNVITSISNAQRQQLREPYKLKYGKDIIQALDKKFSGDLEKAIFALMETPLDYDVKQLKAAMKGLGTDEAVLIEILCSRTVDQLRAIRVTYEKEYGKALEADIAGDTSGEFRDLLVSLVTGSKDGSHDTNDAQAKDDAVRLFADGKAKLAKKDGTHFLHILATQNQYQLRKVFAYFQELAGGSIEKSIEKEFSGDLQKSYLTIVRAASDKQKFFAQQLHASMKGLGTRDNDLIRVIVTRSEVDLELIKAEFQELYSKSLADTVKGDTSGAYRDALLSIINGNHATAH", "values": [
      {"measurement": "soluble on expression in E. coli", "result": "not soluble"}
    ]},
    {"sequence": "MGSDKIHHHHHHMEPVYFTSPTRGRLTEDEMFADMMQFVDANPEAQYKIIIGSDSQARVRTCFVTAVIVHQVGRGARYYYRKKYQRKITSLRQKIFYETALSLETASFIAQRLAANGHADLNVEIHLDIGPNGETRDLIREIVGMVVGSGFAAKIKPYSCGASKVADKYTKSG", "values": [
      {"measurement": "soluble on expression in E. coli", "result": "not soluble"}
    ]},
    {"sequence": "MHCDLPCGVYDPAQARIEAESVKAVQEKMAGNDDPHFQTRATVIKEQRAELAKHHVSVLWSDYFKPPHFEKYPELHQLVNDTLKAMSAAKGSKDPATGQKALDYIAQIDKIFWETKKA", "values": [
      {"measurement": "soluble on expression in E. coli", "result": "soluble"}
    ]},
    {"sequence": "PVGYFTMYRFNFKYPPFDNKKIRQAAMYAIGQEDVMKALVGNPKYWQTCASLWGCGTPFETDIGKDMVVPSNIEKARALLKEAGYDNTPILVMHATDVGTLSAQPVVMAQALRKAGFNVNLAAMDWQSVATRRASKAAPAQGGWNIHNTNWYATDIMDPVRSAPAAANGDNAWFGWPDIPEIEALRTRFALSSDPAEQKKLAEEAQRIGIDEGLYVPLGQMSVPTVYTTKLSGLVHAPVFAFWNVKKAP", "values": [
      {"measurement": "soluble on expression in E. coli", "result": "not soluble"}
    ]},
    {"sequence": "MGSDKIHHHHHHMSYKVINVITAIDYIEEHLSEKLDLDIVANAVHYSKYHLHRTFTTSVGLTMHDYIKRRKLTEAAKLLVFSKKPIIEIALIAGYESQQAFTSIFKAMYKKSPNKYRKEQEFYPLQLRFVLKKDNLFLKNVLELEKEIKLASMSDIPLWMNLVRLVIDGFPNLQEEEYIYQLEQYILEERALILKLNNVAIANMVFNRETRSIDFFGIHPQYRNSDIAQVFLKKVIEDFLIDTDISITTFREGDKADTGHRDMIKKLGFAEAELLVEFGYPTQKFILPLS", "values": [
      {"measurement": "soluble on expression in E. coli", "result": "not soluble"}
    ]},
    {"sequence": "MGSDKIHHHHHHMSTSPLYYAKKTQELCALSDVYITLNRMLSSDGCSLEQLADAIAYEPAIAASILKIANSAMFSMPRKIDSLSKALTILGIKEVKKLVNAYGITAAFSNLDPNVVDMDKFWEISVDCALICQYFAKNKQIPNTDNIFLSGLFHNLGMLAMISSEPAKVRYCEGYDRDETPWFRQNQVFGFTFADCTTELLKLWDLPDSIIQPIAEFNGAEHEPLPDNSKLLYMASRLAVINADPGLYAKEALIDKAILDDLGIESSDMSQSLEYCNEQAMELLATFPIQGRKSSE", "values": [
      {"measurement": "soluble on expression in E. coli", "result": "not soluble"}
    ]},
    {"sequence": "NPGENPKAQKALKQLFDGAQKDDIHLYKISGYRSYPTQVKLYNNYVKRDGKKAADKYSARPGYSEHQTGLTFDVGGVDSDKNLYASFGKTEEGRWIAKNAHNYGFIIRYPKNKESITGYQYEPWHLRYLGKKKATKVYKSGETLEEFVGLK", "values": [
      {"measurement": "soluble on expression in E. coli", "result": "not soluble"}
    ]},
    {"sequence": "MERSLDSLAGMAKSAFGAGTSAAMRQATSPKTILEYIINFFTCGGIRRRNETQYQELIETMAETLKSTMPDRGAPLPENIILDDMDGCRVEFNLPGENNEAGQVIVRVSKGDHSETREIPLASFEKICRALLFRCEFSLPQDSVILTAQGGMNLKGAVLTGANLTSENLCDADLSGANLEGAVLFMADCEGANFKGANLSGTSLGDSNFKNACLEDSIMCGATLDHANLTGANLQHASLLGCSMIECNCSGANMDHTNLSGATLIRADMSGATLQGATIMAAIMEGAVLTRANLRKASFISTNLDGADLAEANLNNTCFKDCTLTDLRTEDATMSTSTQTLFNEFYSENI", "values": [
      {"measurement": "soluble on expression in E. coli", "result": "not soluble"}
    ]},
    {"sequence": "MSKQELDAALKKAKELASSAPVVVFSKTYCGYCNRVKQLLTQVGASYKVVELDELSDGSQLQSALAHWTGRGTVPNVFIGGKQIGGCDTVVEKHQRNELLPLLQDAAATAKTSAQL", "values": [
      {"measurement": "soluble on expression in E. coli", "result": "soluble"}
    ]},
    {"sequence": "MVKESGMASLLLENPYYGYRKPKDQLRSSLKNVSDLFVMGGALILESAALLHWLERDGFWPLGMTGISMGGHMASLAVTNWPKPIPLIPCLSWTTASSVFTTGVLSRAVNWRELEKQYATHTVYEEEIISMLEYCGTDSFRMGQEFVKNAPGSFDGLDLTQELLQSGQQVALRSSYSGRPASDQDSSVLMGRRERDGLDQMLSAVSSSAPHLDMLHAKSIACGSGQRQSLQRESLCFMKGVMDECTHIANFSVPVDPSLIIIVQAKEDAYVPRTGVRSLQEIWPGCEVRYLNGGHISAYLFKQGLFRQAIYDAYDRFLHKYSSL", "values": [
      {"measurement": "soluble on expression in E. coli", "result": "soluble"}
    ]},
    {"sequence": "MKELVEIAVPENLVGAILGKGGKTLVEYQELTGARIQISKKGEFLPGTRNRRVTITGSPAATQAAQYLISQRVTYEQGVRASNPQKV", "values": [
      {"measurement": "soluble on expression in E. coli", "result": "soluble"}
    ]},
    {"sequence": "MTHRPELHVTPEIGILDAPAGALFDGTRWHLFHQFRPKATAPSRWAHDYATTDPFNWEICDDVIAPQGDEIRLRAGSVTSDGKTTRLYFTSITNEGDSIHLAEITDLDATTYDVNDDATTTDPHVTRLGQVVADQGGYTNFRSPCVVPNWVTADDRDEGHSGWIMLAVTGDMDEPTLVILDSENGTDWELRGPLKVVGNSGIEAERPVAPRIIRLRDEIDQNVYDILIVTIEIGGIDRSGYLVGKLHNNIFTVVSPFTRIDYGHDFTRPRNTNYTSHLNSSVAPEHRYSHAHVFGLMNGIGRLDDATTHLSFREEQWANCLSLPRRMTLQGGKIYHTPVAGLPDAIRDSDHAIMWTGLLDVPLGEKVTVELVDTTGNIAAKITHYGDLLELDRSMNPHHEGDDIAVAPLTEDDTDSVTIIVDGSTVEVFADGGQIAMASRVYFNGYCEAFTPQASDGADILRSDVTKPLG", "values": [
      {"measurement": "soluble on expression in E. coli", "result": "not soluble"}
    ]},
    {"sequence": "MSVAETEIPIPAATPSLTDACVHCGFCLSDCPSYRVLGRETDSPRGRVYLMDSLQQGRIELSDTVVEHFDTCLGCLACTSACPSGVQYDQLIEEMRQRIAQEHRRPWPEAIWRKLLEHHHHHH", "values": [
      {"measurement": "soluble on expression in E. coli", "result": "not soluble"}
    ]},
    {"sequence": "MGASKYDVKRLVDDYVNRLAKNGVLPDVIDKEPILPRVTLPESEITSQSYRKYPKKPKAIGKVGSTGGNRNGMGAIHPTLISYPEEQRKTNSRVKNNRSNYHIGNIGNIGGNIGNGQKMNRNKNGGRNQGGNHPDNMGIPMFPIARPTPYDLAEYIERGLNTGRSNHRTPQNFRRYPEHECDYYAGPCATSF", "values": [
      {"measurement": "soluble on expression in E. coli", "result": "not soluble"}
    ]},
    {"sequence": "MSLGRDKDLNILCWEGYNSAQVLDPFRKLTGATVKAESSTNDPTMINRLRAGETNVWDLINVNNPWARKILWPQNLIKPLDRAEFEPFFDKMLPEFKAPYRWAMSDDGKDLLGMAQRFGPFCFVVDTDKISRQTAEDQGWDLWNDKALAGRYGIQESDDWNVFGLFLIAGINPFKTHTEAELAKFEETAKAVFKGAKVVGDMASMNQALVSGEIDLYLSGGTYTVSPARAEGLGNLRGITPLRGPIDGKGGVMWVEITSQVNNPQLSPLAGQFLKHVQTPQVAHTVAFAEGTFNPIAQMGNPDCFKLFSKAELDAIQWDSLAEEMARSVAYDIVPDYDKALDLMTAAKRVRGEGHHHHHH", "values": [
      {"measurement": "soluble on expression in E. coli", "result": "soluble"}
    ]},
    {"sequence": "MKTADELAKLRRASELITDSMLATIAAARAGSTKLEIIEQLRREETNRGLHFEYCLLTLGASHNRAGSPQAWAEGEILSIDSGGNYHGYIGDLCRMGVLGEPDAELEDLLAEVERIQQAAFAKVRAGVLGSEMIVAAEAELKASPSAAFTDFFCHGMGLITHEAPFLMTNHPVAYEGIDADKPLEAGNVISVETTMLHPKRGFIKLEDTLAITDKGYEMFGDRGRGLEHHHHHH", "values": [
      {"measurement": "soluble on expression in E. coli", "result": "soluble"}
    ]}
  ]
}
